PMC10397247

Columns and labels:
4H_APH = biological target: T1, 4H_APH; test: two-hybrid library CCmax;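 note: natural log of median RNA to DNA barcode read ratio; higher means stronger binding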
T1 chain: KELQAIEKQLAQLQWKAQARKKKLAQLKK

4H3001-AA = biological target: T2, 4H3001-AA; test: two-hybrid library CCmax; conditions: mean of both orientations;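 note: natural log of median RNA to DNA barcode read ratio; higher means stronger binding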
T2 chain: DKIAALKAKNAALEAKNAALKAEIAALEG

4H347-AA = biological target: T3, 4H347-AA; test: two-hybrid library CCmax; conditions: mean of both orientations;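 note: natural log of median RNA to DNA barcode read ratio; higher means stronger binding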
T3 chain: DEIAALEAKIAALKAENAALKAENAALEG

GCN2_T = test: two-hybrid library CCmax;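 note: natural log of median RNA to DNA barcode read ratio; higher means stronger binding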
4H2931-AA = biological target: T4, 4H2931-AA; test: two-hybrid library CCmax; conditions: mean of both orientations;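 note: natural log of median RNA to DNA barcode read ratio; higher means stronger binding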
T4 chain: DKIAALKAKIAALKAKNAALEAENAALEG

4H2165-AA = biological target: T5, 4H2165-AA; test: two-hybrid library CCmax; conditions: mean of both orientations;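 note: natural log of median RNA to DNA barcode read ratio; higher means stronger binding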
T5 chain: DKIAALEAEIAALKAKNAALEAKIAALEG

4H3073-AA = biological target: T6, 4H3073-AA; test: two-hybrid library CCmax; conditions: mean of both orientations
T6 chain: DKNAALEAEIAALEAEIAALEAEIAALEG

4H2466-AA = biological target: T7, 4H2466-AA; test: two-hybrid library CCmax; conditions: mean of both orientations
T7 chain: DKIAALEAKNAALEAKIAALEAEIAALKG

4H2253-AA = biological target: T8, 4H2253-AA; test: two-hybrid library CCmax; conditions: mean of both orientations
T8 chain: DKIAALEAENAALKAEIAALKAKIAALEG

4H3015-AA = biological target: T9, 4H3015-AA; test: two-hybrid library CCmax; conditions: mean of both orientations
T9 chain: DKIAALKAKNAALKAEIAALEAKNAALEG

4H2124-AA = biological target: T10, 4H2124-AA; test: two-hybrid library CCmax; conditions: mean of both orientations
T10 chain: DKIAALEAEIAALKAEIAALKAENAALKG

4H2592-AA = biological target: T11, 4H2592-AA; test: two-hybrid library CCmax; conditions: mean of both orientations
T11 chain: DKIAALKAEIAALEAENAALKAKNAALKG

4H249-AA = biological target: T12, 4H249-AA; test: two-hybrid library CCmax; conditions: mean of both orientations
T12 chain: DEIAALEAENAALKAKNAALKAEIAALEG

4H406-AA = biological target: T13, 4H406-AA; test: two-hybrid library CCmax; conditions: mean of both orientations
T13 chain: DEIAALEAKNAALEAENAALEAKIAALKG

4H2732-AA = biological target: T14, 4H2732-AA; test: two-hybrid library CCmax; conditions: mean of both orientations
T14 chain: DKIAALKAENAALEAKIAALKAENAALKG

4H1828-AA = biological target: T15, 4H1828-AA; test: two-hybrid library CCmax
T15 chain: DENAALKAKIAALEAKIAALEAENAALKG

4H2343-AA = biological target: T16, 4H2343-AA; test: two-hybrid library CCmax; conditions: mean of both orientations
T16 chain: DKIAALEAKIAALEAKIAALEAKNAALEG

4H_GCN4 = test: two-hybrid library CCmax
4H_BCR = biological target: T17, 4H_BCR; test: two-hybrid library CCmax; conditions: mean of both orientations
T17 chain: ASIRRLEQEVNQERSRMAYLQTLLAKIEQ

4H1930-AA = biological target: T18, 4H1930-AA; test: two-hybrid library CCmax; conditions: mean of both orientations
T18 chain: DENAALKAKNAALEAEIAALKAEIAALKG

4H56-AA = biological target: T19, 4H56-AA; test: two-hybrid library CCmax; conditions: mean of both orientations
T19 chain: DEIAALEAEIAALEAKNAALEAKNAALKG

4H452-AA = biological target: T20, 4H452-AA; test: two-hybrid library CCmax; conditions: mean of both orientations
T20 chain: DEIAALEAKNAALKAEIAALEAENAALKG

4H2330-AA = biological target: T21, 4H2330-AA; test: two-hybrid library CCmax; conditions: mean of both orientations
T21 chain: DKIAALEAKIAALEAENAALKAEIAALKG

4H2774-AA = biological target: T22, 4H2774-AA; test: two-hybrid library CCmax; conditions: mean of both orientations
T22 chain: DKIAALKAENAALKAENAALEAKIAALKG

4H3438-AA = biological target: T23, 4H3438-AA; test: two-hybrid library CCmax; conditions: mean of both orientations
T23 chain: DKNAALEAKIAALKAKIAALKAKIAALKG

P8mS = biological target: T24, P8mS; test: two-hybrid library CC1; conditions: mean of both orientations
T24 chain: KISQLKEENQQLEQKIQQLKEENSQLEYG

P6 = biological target: T25, P6; test: two-hybrid library CC1; conditions: mean of both orientations
T25 chain: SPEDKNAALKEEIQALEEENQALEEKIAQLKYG

P9 = biological target: T26, P9; test: two-hybrid library CC1; conditions: mean of both orientations
T26 chain: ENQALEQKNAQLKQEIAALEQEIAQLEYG

P7 = biological target: T27, P7; test: two-hybrid library CC1; conditions: mean of both orientations
T27 chain: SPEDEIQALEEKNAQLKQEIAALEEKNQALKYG

P6SC2 = biological target: T28, P6SC2; test: two-hybrid library CC1; conditions: mean of both orientations
T28 chain: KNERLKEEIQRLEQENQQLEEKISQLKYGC

P5SC2 = biological target: T29, P5SC2; test: two-hybrid library CC1; conditions: mean of both orientations
T29 chain: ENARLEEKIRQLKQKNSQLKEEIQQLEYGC

P4 = biological target: T30, P4; test: two-hybrid library CC1
T30 chain: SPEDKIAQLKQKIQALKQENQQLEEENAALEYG

P6mS = biological target: T31, P6mS; test: two-hybrid library CC1; conditions: mean of both orientations
T31 chain: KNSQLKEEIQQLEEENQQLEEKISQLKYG

P4mS = biological target: T32, P4mS; test: two-hybrid library CC1; conditions: mean of both orientations
T32 chain: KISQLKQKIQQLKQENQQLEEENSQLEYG

P5 = biological target: T33, P5; test: two-hybrid library CC1; conditions: mean of both orientations
T33 chain: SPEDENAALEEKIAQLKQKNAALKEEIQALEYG

P5SC1 = biological target: T34, P5SC1; test: two-hybrid library CC1; conditions: mean of both orientations
T34 chain: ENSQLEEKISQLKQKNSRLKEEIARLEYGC

P5mS = biological target: T35, P5mS; test: two-hybrid library CC1; conditions: mean of both orientations
T35 chain: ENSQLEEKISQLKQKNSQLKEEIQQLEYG

P7mS = biological target: T36, P7mS; test: two-hybrid library CC1; conditions: mean of both orientations
T36 chain: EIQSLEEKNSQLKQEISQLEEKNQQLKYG

P6SC1 = biological target: T37, P6SC1; test: two-hybrid library CC1; conditions: mean of both orientations
T37 chain: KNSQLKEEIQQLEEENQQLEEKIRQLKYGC

P8 = biological target: T38, P8; test: two-hybrid library CC1; conditions: mean of both orientations
T38 chain: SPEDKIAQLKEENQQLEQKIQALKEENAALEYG

Sequence of 4H_GCN4 (chain, as listed by the source): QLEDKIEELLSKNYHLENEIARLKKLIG

## DENAALKAKIAALEAKIAALEAENAALKG [4H1828-AA]
4H_APH
  interaction score: -1.13
4H3001-AA
  interaction score: -1.55
4H347-AA
  interaction score: -0.947
GCN2_T
  interaction score: -2.49
4H2931-AA
  interaction score: -2.02
4H2165-AA
  interaction score: -1.37
4H3073-AA
  interaction score: -1.08
4H2466-AA
  interaction score: -1.4
4H2253-AA
  interaction score: -1.32
4H3015-AA
  interaction score: -1.83
4H2124-AA
  interaction score: -1.65
4H2592-AA
  interaction score: -0.581
4H249-AA
  interaction score: -1.5
4H406-AA
  interaction score: -1.44
4H2732-AA
  interaction score: -1.51
4H1828-AA
  interaction score: 1.34
4H2343-AA
  interaction score: -1.69
4H_GCN4
  interaction score: -2.2
4H_BCR
  interaction score: -2.28
4H1930-AA
  interaction score: -1.5
4H56-AA
  interaction score: -1.03
4H452-AA
  interaction score: -1.35
4H2330-AA
  interaction score: -1.45
4H2774-AA
  interaction score: -1.37
4H3438-AA
  interaction score: -1.01

## SPEDKIAQLKQKIQALKQENQQLEEENAALEYG [P4]
P8mS
  interaction score: -2.82
P6
  interaction score: -2.83
P9
  interaction score: -2.29
P7
  interaction score: -2.74
P6SC2
  interaction score: -2.66
P5SC2
  interaction score: -2.74
P4
  interaction score: -3
P6mS
  interaction score: -2.85
P4mS
  interaction score: -2.91
P5
  interaction score: -3.06
P5SC1
  interaction score: -2.83
P5mS
  interaction score: -2.91
P7mS
  interaction score: -2.77
P6SC1
  interaction score: -2.87
P8
  interaction score: -2.99
